Results published in US20110269148A1 (published 2011).

Molecular target: protein A on the surface of Staphylococcus aureus cells (ATCC 12598) (Staphylococcus aureus, UniProt P38507 37-477)
Test: cell-based or functional assay

B1: sdAb-NAEB: single domain antibody HVHP428 (human VH) conjugated to rhodamine 6G gold nanoaggregate embedded beads with silica shell (other)
VH: QLQLQESGGGLVQPGGSLRLSCAASGFTFSSYAMSWFRQAPGKGLEWVGFIRSKAYGGTTEYAASVKGRFTISRDDSKSIAYLQMNSLRAEDTAMYYCARRAKDGYNSPEDYWGQGTLVTVSS
modifications: covalently coupled by EDC/NHS chemistry to the amine- or carboxylate-modified silica shell of the bead; coupled residues not stated
agglutination relative to the sdAb pentamer (Ryan et al., 2009; MAC value 3×10^13 pentamer mL^-1): > 100 fold
